Molecular target: SARS-CoV-2 receptor binding domain (RBD), wild type (SARS-CoV-2, UniProt P0DTC2 319-539)
Assay: ELISA, RBD protein coated, mAb titrated

| Binder | EC50 |
| --- | --- |
| C065 (antibody, V domains shown) VH: QVQLQESGPGLVKPSQTLSLTCTVSGGSISSSNYYWSWIRQHPGKGLEWIGYIDYSGGTYYNPSLKSRVTISVDTSKNQFSLKLSSVTAADTAVYYCARVSTTVTTYLVGGFDIWGQGTMVTVSS VL: IRMTQSPSSLSASVGDRVTITCQASQDITNYLNWYQQKPGKAPKLLLYDASNLETGVPSRFSGSGSGTDFTFTISSLQPEDIATYYCQQYDNLPWTFGQGTKVEIK | 29.1 ng/mL |
| C069 (antibody, V domains shown) VH: QVQLVQSGAEVKKPGSSVNVSCKASGGTFSTYAIHWVRQAPGQGLEWMGGIIPLFHTANYAQKFQGRVTITADESTSTAYMELSSLRSEDTAMYYCAINTQWDLVPRWGRGTLVTVSS VL: EIVLTQSPGTLSLAPGERATLSCRASQSVNSNYLAWYQQKPGQAPRLLIYGASSRATGIPDRFSGSGSGTDFTLTISRLEPEDFAVYYCQQYGFSLYSFGQGTKLEIK | 381 ng/mL |
| C521 (antibody, V domains shown) VH: EVQLVESGGGLVRPGGSLTLSCVASGFTVGSNFMSWVRQAPGKGLEWVSLIYNSGGTHYADSVKGRFTISRDRSKNTLYLQMNSLRAEDTAIYYCANHGYYYYMDVWGKGTTVTVS VL: QSALTQPASVSGSPGQSITISCTGTGSDIGAYNYVSWHQHHPGKAPKLIIYDVSNRPSGVSNRFSGSKSGNTASLTISGLQAEDEADYYCTSYTNTTTPWVFGGGTKVTVL | 6.9 ng/mL |
| C522 (antibody, V domains shown) VH: EVQLVESGGGLIQPGGSLRLSCAASEFIVSRNYMSWVRQAPGKGLEWVSVIYSGGSTFYADSVKGRFTISRDESKNTLYLQMNSLRAEDTAIYYCARDRGGGILDYWGQGTLVTVS VL: DIQMTQSPSSLSASVGDRVTITCQASQDINIFLNWYQQKPGKAPKLLIYDASSLETGVPSRFSGSGSGTDFTFTISSLQPEDFATYYCQQYGNLPKYTFGQGTKLEIK | 0.93 ng/mL |
| C067 (antibody, V domains shown) VH: VQLVESGGGVVQPGRSLRLSCAASGFSFRIFGMNWVRQAPGKGLDWVAGISHDGSDKYFADSVKGRFTISRDNSKNTLYLQMNSLRADDTAVYYCARDMEVDYYDRSGHYHVFHAFDIWGQGTMVTVSS VL: DIVMTQSPDSLAVSLGARATINCKSSQSILYSSDNKSSLAWYQQKPGHPPKLLIYWASTRESGVPDRFSGSESGTDFTLTISNLQGEDVAVYYCQQYYSIPRSFGQGTKLEIK | 6.98 ng/mL |
| C091 (antibody, V domains shown) VH: QVQLVQSGAEVKKPGSSVKVSCKASGGTFSSYTISWVRQAPGQGLEWMGRIIPILGIANYAQKFQGRVTITADKSTSTAYMELSSLRSEDTAVYYCARDSGYSGYGSTYYMDVWGKGTTVTVSS VL: QSVLTQPPSVSGAPGQRVTISCTGSSSNIGAGYDVHWYQQLPGTAPKLLIYGNSNRPSGVPDRFSGSKSGTSASLAITGLQAEDEADYYCQSYDSSLSGSVFGTVTKVTVL | 89.5 ng/mL |
| C092 (antibody, V domains shown) VH: QVQLVQSGAEVKKPGSSVKVSCKASGGSFTNHFISWVRQAPGQGLEWMGRIIPILGTANYAQNFQGRVMMTADKSTSTAYMELSSLRSEDTAVYYCARDSGYSGYGSTYYMDVWGKGTTVTVSS VL: QSVLTQPPSVSGAPGQRVTISCTGSNSNIGAGYDVHWYQQLPGAAPKLLIYGNNNRPSGVPDRFSGSKSDTSASLAITGLQVEDEADYYCQSYDSSLSDSVFGSGTKVTVL | 7.07 ng/mL |
| C066 (antibody, V domains shown) VH: EVQLVESGGGLIQPGGSLRLSCAASGLLVSRNYMTWVRQAPGKGLEWVSVIYSGGSTFYADSVRGRFTISRDNSKNTLYLQMDSLRAEDTAVYYCARDVGDYYGMDVWGQGTTVTVSS VL: DIQLTQSPAFLSASVGDRVTITCRASQGMSNYLAWYQQKPGKAPNLLIYTASTLQSGVPSRFSGSGSGTEFTLTISSLQPEDFATYYCQLLNSYPQLTFGGGTKVEIK | 4.2 ng/mL |
| C088 (antibody, V domains shown) VH: QVQLVQSGAEAKKPGASVKVSCKTSGYTFTNYFMHWVRQAPGQGPEWMGIIDSSDGGASYAQKFQGRVTMTRDTSTSTVYMELRSLKFEDTAVYYCARASTSTTSWSDALSLGSWGQGTLVTVSS VL: QSVLTQPPSVSGAPGQRVTISCTGSSSNIGGGSVVHWYQQLPGTAPKLLIYANSNRPSGVPDRFSGSKSGTSASLAIAGLQAEDEADYYCQSWDNGLSASGVVFGGGTKLTVL | 2.44 ng/mL |
| C094 (antibody, V domains shown) VH: QVQLQESGPGLVKPSETLSLTCNVSGVSISTDYWSWIRQPPGKGLEWIGYIYYSGNTKDYNPSLKSRVTISVDTSKNQFSLMLSSVTAADTAVYYCARHYDILTSLSWFDPWGQGTLVTVSS VL: QSVLTQPPSVSAAPGQKVTISCSITNSNLGNIYVSWYQQLPGTAPKLLIYGNNKRPSGIPDRFSGSKSGTSATLGITGLQTGDEAHYYCGTWDSSLSANWVFGGGTKLTVL | 1.67 ng/mL |
| C068 (antibody, V domains shown) VH: QVQLVESGGGVVQPGRSLRLSCVASGFSFSTYGMHWVRQAPGKGLEWVALIWSDGSNKYYGDAAEGRFTISRDNSNNTLYLQMNNLRAEDTALYYCARDHSSSSFVYYYYMDVWGKGTTVTVSS VL: QSALTQPRSVSGSPGQSVTISCTGTSSDIGGYNYVSWYQQHPDKAPKFIIFDVSKRPSGVPDRFSGSKSGNTASLTISGLQAEDEADYYCCSYAGPYPYVFGTGTKVTVL | 5.46 ng/mL |
| C032 (antibody, V domains shown) VH: EVQLVQSGAEVKKPGESLKISCKGSGYSFTSYWIGWVRQMPGKGLEWMGIIYPGDSDTRYSPSFQGQVTISADKSISTAYLQWSSLKASDTAMYYCARGVAVDWYFDLWGRGTLVTVSS VL: QSVLTQPPSVSGAPGQRVTISCTGSSSNIGAGYDVHWYQQLPGTAPKLLIYGNSNRPSGVPDRFSGSKSGTSASLAITGLQAEDEADYYCQSYDSSLSALYVFGTGTKVTVL | 17.3 ng/mL |
| C080 (antibody, V domains shown) VH: EVQLVQSGAEVKKPGESLNISCKASGYSFTIYWIAWVRQLPGKGLEWMGIIYPGDSDTRYSPSFQGQVTISADKSISTAYLQWRSLKASDSAVYYCARGVAVDWYFDLWGRGTLVTVSS VL: QSVLTQPPSVSGAPGQRVTISCAGSSSNIGAGFDVYWYQQLPGTAPKLLIYGNNNRPSGVPDRFSGSKSGTSASLAITGLQAEDEADYYCQSSGSVLSDLYVFGTGTKVTVL | 1.97 ng/mL |
| C083 (antibody, V domains shown) VH: EVQLVESGGGLVKPGGSLRLSCAASGFTFSSYSMNWVRQAPGKGLEWVSSISSSTSYIYYADSVKGRFTISRDNAKNSLYLQMNSLRAEDTAVYYCARERYGDNWGQGTLVTVSS VL: QLVLTQSPSASASLGASVKLTCTLSSGHSSYAIAWHQQQPEKGPRYLMSLNSDGSHSKGDGIPDRFSGSSSGAERYLTISSLQSEDEADYYCQTWGPWVFGGGTKLTVL | 25.1 ng/mL |
| C064 (antibody, V domains shown) VH: EVQLLESGGDLVQPGGSLRLSCAASGFTFSNYAMSWVRQAPGKGLEWVSAISGSGGNTYYADSVKGRFTISRDNSKNTLYLQMNSLRAEDTAVYYCAKAVHYGGNSDRRFSEPSAPFDYWGQGTLVTVSS VL: QSALTQPASVSGSPGQSITISCTGTSSDVGSYNLVSWYQQHPGKAPKLMIYEGSKRPSGVSNRFSGSKSGNTASLTISGLQAEDEADYYCCSYAGSSTPYVFGTGTKVTVL | 363 ng/mL |
| C063 (antibody, V domains shown) VH: EVQLVQSGAEVKKPGDSLKISCKASGYSFTRYWIGWVRQMPGKGLDWMGIIYPGDSDTRYSSSFQGQVTISADKSISTAYLQWSSLKASDTSLYYCVRRASSTNFEFWGQGTLVTVSS VL: SYELTQPPSVSVAPGQTATITCGGNNIGSKTVHWYQQKPGQAPVVVVYDDSDRPSGIPERFSGSKSGSTATLTITRVEAGDEADYYCQVWDSTSDHYVFGTGTKVAVI | 414 ng/mL |
